How the values were obtained:
[1] = molecular target: T1, prefusion stabilized SARS-CoV-2 S ectodomain (SARS-CoV-2, UniProt P0DTC2 14-1208); assay: ELISA, coated S ectodomain [cont'd]
T1 construct: also called SARS-CoV-2 spike ectodomain; ectodomain of the spike (S) homotrimer of SARS-CoV-2

[2] = molecular target: T1, prefusion stabilized SARS-CoV-2 S …; assay: ELISA, coated S ectodomain
[3] = molecular target: T1, prefusion stabilized SARS-CoV-2 S …; assay: ELISA, coated S ectodomain [cont'd]; remark: listed apart in the source

Row | Binder | EC50 [1] | EC50 [2] | other results
1 | HbnC2t1p2_D9 (antibody, V domains shown) VH: QVQLVESGGGVVQPGRSLRLSCAASGFTFSSYGMHWVRQAPGKGLEWVAVIWYDGRNKYYVDSVKGRFTISRDNSKNTLYLQISSLRAEDTAVYYCARAARRPVVTDTMAYYMDVWGKGTTVTVSS VL: EIVLTQSPATLSLSPGERATLSCRASLSLSSYLAWYQQKPGQAPRLLIYDASNRATGIPARFSGSGSGTDFTLTISSLEPEDFAVYYCQQRSNWPPTWTFGQGTKAEIKR | 0.04 µg/mL | – | –
2 | HbnC4t1p1_D5 (antibody, V domains shown) VH: EVQLVESGGGLVQPGRSLRLSCAASGFTFDDYAMHWVRQAPGKGLEWVSGISWNSGSIGYADSVKGRFTISRDNAKNSLYLQMNSLRAEDTGLYYCAKDINYDSGGYHKNYFDYWGQGTLVTVSS VL: DIQMTQSPSSLSASVGDRATITCRASQSISSYLNWYQEKPGKAPKLLIYAASSLQSGVPSRFSGSGSGTDFTLTISSLQPEDFATYYCQQSYSNPLTFGGGTKVEIK | 0.25 µg/mL | – | –
3 | CnC2t1p1_B10 (antibody, V domains shown) VH: QVQLVQSGAEVKKPGSSVKVSCKASGGTFSSYAISWVRQAPGQGLEWMGGIIPIFGTANYAQKFQGRVTITADKSTSTAYMELSSLRSEDTAVYYCARVSGYDSSGYWGDYWGQGTLVTVSS VL: EIVLTQSPATLSLSPGERATLSCRASQSVSSYLAWYQQKPGQAPRLLIYDASNRATGIPARFSGSGSGTDFTLTISSLEPEDFAVYYCQQRSNWPPALTFGGGTKVEIK | – | 0.32 µg/mL | –
4 | MnC4t2p1_B3 (antibody, V domains shown) VH: EVQLVESGGHLVQPGRSLRLSCAASGFTFDDYAMHWVRQVPGKGLEWVSGISWNGGILDYADSVKGRFTISRDNAKNSLYLHMRSLRTDDTALYYCAKDLRRQDYYADWYFDLWGRGTLVTVSS VL: DIQMIQSPSSVSASVGDRVTITCRASQGISSWLAWYQQKPGKAPKLLIYAASTLLSAVPSRFSGSGSGTDFTLTISSLQPEDFATYYCQQGNSFPFTFGPGTIVDV | – | – | EC50 [3]: 0.06 µg/mL
5 | MnC2t1p1_A3 (antibody, V domains shown) VH: EVQLVESGGGLVQPGGSLRLSCAASGFTVSSNYMSWVRQAPGRGLEWVSVIYSGGSTFYADSVKGRFTISRDNSKNTLYLQMNSLRPEDTAVYYCATGARFGESPFDYWGQGTLVTVSS VL: DIQMTQSPSSVSASVGDRVTITCRASQGISSWLAWYQQKPGKAPKLLIYAASSLQSGVPSRFSGSGSGTDFTLTISSLQPEDFATYYCQQANSFPGTFGQGTKVEIK | – | – | EC50 [3]: 0.05 µg/mL
6 | MnC2t1p1_C5 (antibody, V domains shown) VH: EVQLVESGGGLVQPGGSLRLSCAASGFTVSSNYMSWVRQAPGKGLEWVSVIYSGGSTYYADSVKGRFTISRDNSKNTLYLQMNSLRAEDTAVYYCATGARFGESPFDYWGQGTLVTVSS VL: DIQMTQSPSSVSASVGDRVTITCRASQGISSWLAWYQQKPGKAPKLLIYAASSLQSGVPSRFSGSGSGTDFTLTISSLQPEDFATYYCQQANSFPGTFGQGTKVEIK | – | – | EC50 [3]: 0.07 µg/mL
7 | MnC1t3p1_G9 (antibody, V domains shown) VH: EVQLLESGGGLVQPGGSLRLSCAASGFTFRNYAMTWVRQAPGKGLEWVSGISDSGDRTYNADSVKGRFSISRDNSKNTLHLQMNSLRAEDTAVYYCALASGSYFGGANYWGQGTLVTVSS VL: QAVVTQEPSLTVSPGGTVTLTCGSSTGPVTSDHYPYWFQQKPGQAPTTLIYDTNNKHSWTPARFSGSLLGGKAALTLSGAQPEDEAEYYCLLSYTGARVFGGGTKLTVL | – | – | EC50 [3]: 0.33 µg/mL
8 | HbnC3t1p1_C6 (antibody, V domains shown) VH: QMQLVQSGPEVKKPGTSVKVSCKASGFTFTSSAVQWVRQARGQRLEWIGWIVVGSGNTNYAQKFQERVTITRDMSTSTAYMELSSLRSEDTAVYYCAAPHCSSTICYDGFDIWGQGTMVTVSS VL: not shown | 0.06 µg/mL | – | –
9 | HbnC3t1p2_C6 (antibody, V domains shown) VH: QMQLVQSGPEVKKPGTSVKVSCKASGFTFSSSAVQWVRQARGQRLEWIGWIVVGSGNTNYAQKFQGRVTITRDMSTRTAYMELSSLRSEDTAMYYCAAPYCSSTRCYDAFDIWGQGTMVTVSS VL: not shown | 0.04 µg/mL | – | –
10 | HbnC3t1p1_G4 (antibody, V domains shown) VH: EVQLVESGGGLVQPGGSLRLSCAASGFTVSSNYMSWVRQAPGKGLEWVSVIYSGGSTFYADSVKGRFTISRDNSKNTLYLQMNSLRAEDTAVYYCARDFGDFFFDYWGQGTLVTVSS VL: EIVLTQSPGTLSLSPGERATLSCRASQSVSSYLAWYQQKPGQAPRLLIYGVSSRATGIPDRFSGSGSGTDFTLTISRLEPEDFAVYYCQQYGSSPRTFGQGTKVEIK | 0.02 µg/mL | – | –
11 | HbnC3t1p2_B10 (antibody, V domains shown) VH: EVQLVESGGGLVQPGGSLRLSCAASGFIVSSNYMSWVRQAPGKGLEWVSVIYSGGSTFYADSVKGRFTISRDNSKNTLYLQMNSLRAEDTAVYYCARDYGDYFFDYWGQGTLVTVSS VL: EIVLTQSPGTLSLSPGERATLSCRASQSVSSYLAWYQQKPGQAPRLLISGASSRAAGIPDRFSGSGSGTDFTLTINRLEPEDFAVYYCQQYGSSPRTFGQGTKLEIK | 0.22 µg/mL | – | –
12 | MnC4t1p1_A11 (antibody, V domains shown) VH: EVQLVESGGGLVQPGGSLRLSCAASGFTFSSYSMNWVRQAPGKGLEWVSYISSSSNTRYYTDSVMGRFTISRDNAKNSLFLQMNSLRAEDTAVYYCASSKGFCSGGSCSDYWGQGTLVTVSS VL: EIVLTQSPGTLSLSPGERATLSCRASQSVSSSYLAWYQQKPGQAPRLLIYGVSSRATGIPDRFSGSGSGTDFTLTISRLEPEDFVVYYCHQYGSSPWTFGQGTKVEIK | – | – | EC50 [3]: 0.05 µg/mL
13 | FnC1t2p1_D4 (antibody, V domains shown) VH: QVQLVQSGSELKKPGASVKVSCKASGYTFLRFAMNWLRQAPGQGLEWMGWIDTNTGTPTYAQGFTGRFVFSLDTSVSTAYLQISSLKAEDTAVYYCARSLRGANLVPWGQGTLVTVSS VL: DIQMTQSPSSLSASVGDRVTITCQASQDVSNYLNWYQQQPGKAPKLLIYDAFNLETGVPSRFSGSGSGTDFTFTISSLQPEDIATYYCQQYDNLPLTFGGGTKVEIK | – | 0.02 µg/mL | –
14 | FnC1t2p1_G5 (antibody, V domains shown) VH: QVQLVQSGSELKKPGASVKVSCKASGYTFLRFAMNWLRQAPGQGLEWMGWIDTNTGTPTYAQGFTGRFVFSLDTSVSTAYLQISSLKAEDTAVYYCARSLRGANLVPWGQGTLVTVSS VL: DIQMTQSPSSLSASVGDRVTITCQASQDVSNYLNWYQQQPGKAPKLLIYDAFNLETGVPSRFSGSGSGTDFTFTISSLQPEDIATYYCQQYDNLPLTFGGGTKVEIK | 0.02 µg/mL | – | –
15 | CnC2t1p1_D6 (antibody, V domains shown) VH: EVQLVESGGGLVQPGRSLRLSCTASGFTFGDYAMSWFRQAPGKGLEWVGFIRSKAYGGTTEYAASVKGRFTISRDDSKSIAYLQMNSLKTEDTAVYYCTRVRRLWFGSYYYGMDVWGQGTTVTVSS VL: not shown | – | 0.03 µg/mL | –
16 | CnC2t1p1_E12 (antibody, V domains shown) VH: EVQLVESGGGLVQPGRSLRLSCTASGFTFGDYAMSWFRQAPGKGLEWVGFIRSKAYGGTTEYAASVKGRFTISRDDSKSIVYLQMNSLKTEDTAVYYCTRVRRLWFGSYYYGMDVWGQGTTVTVSS VL: not shown | – | 0.03 µg/mL | –
17 | HbnC3t1p1_F4 (antibody, V domains shown) VH: QVQLVESGGGVVQPGRSLRLSCAATGFTFRRYGMHWVRQAPGKGLEWVAGILFDGSNKYYVDSVKGRFTISRDSSRNTLYLQLNSLRREDTAVYYCAKGGDYEWELLESWGQGTLVTVSS VL: DIQMTQSPSTVSASVGDRVTITCRASQSIDNWLAWYQEKPGKAPKVLIYKASSLESGVPSRFSGRGSGTEFTLTISSLQPGDFATYYCQHYHSFPLTFGGGTKVDIK | 0.04 µg/mL | – | –
18 | FnC1t1p2_A5 (antibody, V domains shown) VH: QVQLVQSGAEVKKPGASVKVSCKASGYTFTSYDINWVRQATGQGLEWMGWMNPNSGNTGYAQKFQGRVTMTRNTSISTAYMELSSLRSEDTAVYYCARATTDCSSTSCWSLDFWSGYYTGGREKIFDYWGQGTLVTVSS VL: not shown | – | – | binding result [2]: binds
19 | MnC2t2p1_C11 (antibody, V domains shown) VH: QVQLVQSGAEVKKPGSSVKVSCKASGGTFSRYTIIWVRQAPGQGLEWMGRIIPILDIANYAQKFQGRVTITADKSTSTAYMELSSLRSEDTAVYYCAREGGLDYFGSRNSGWTYTWFDPWGQGTLVTVSS VL: DIQMTQSPSSLSASVGDRVTITCRASQNISSYLNWYQQKPGKAPNLLIYAASSLQSGVPPRFSGSGSGTDFTLTISSLQPEDFATYYCQQSYSTLYSFGQGTKLEIK | – | – | EC50 [3]: 0.02 µg/mL
20 | CnC2t1p1_B4 (antibody, V domains shown) VH: QVQLVQSGAEVKKPGASVKVSCKASGYTFTSYGISWVRQAPGQGLEWMGWISAYNGNTNYAQKLQGRVTMTTDTSTSTAYMELRSLRSDDTAVYYCARDGELLGWFDPWGQGTLVTVSS VL: QSALTQPASVSGSPGQSITISCTGTSSDVGSYNLVSWYQQHPGKAPKLMIYEGSKRPSGVSNRFSGSKSGNTASLTISGLQAEDEADYYCCSYAGSSTWVFGGGTKLTVL | – | 0.03 µg/mL | –
21 | CnC2t1p1_E8 (antibody, V domains shown) VH: QVQLVQSGAEVKNPGASVKVSCKASGYIFTNYYIHWVRQAPGQGLEWVGWIHSLSGGTSYAQKFQGRVTLTRDASIRTAYMELSRLGSDDTALYYCARASVSTITDFDYWGQGTLVAVSS VL: QSALTQPASVSGSPGQSITISCTGTSGDVGSYNLVSWYQQHPGKAPKLVIYEATKRPSGVSNRFFASKSGNTASLTISGLQAEDEADYYCCSYAGVRTVVFGGGTKLTVL | – | 0.13 µg/mL | –
22 | CnC2t1p1_G6 (antibody, V domains shown) VH: QVQLVQSGAEVKKPGASVKVSCKASGYIFTNYYIHWVRQAPGQGLEWVGWIHSLSGGTSYAQKFQGRVTLTRDAPIRTAYMELSGLGSDDTAVYYCARASVATITDFDYWGQGTLVAVSS VL: QSALTQPASVSGSPGQSITISCTGTSGDIGSYNLVSWYQQYPGKAPKLIIYEASKRPSGVSNRFFASKSGNTASLTISGLQAEDEADYYCCSYAGVRTVVFGGGTKLTVL | – | 0.31 µg/mL | –
